The target in test [1] is BCR-ABL Y177F (human) (UniProt P11274). Description: native gel or EMSA.
Test [2] concerns the target kinase-dead BCR-ABL (K271H) (human) (UniProt P11274). The test can be described thus: native gel or EMSA.
Test [3] deals with BCR-ABL with deleted FABD domain (human) (UniProt P11274). Description: co-IP.
In test [4] the target is BCR-ABL Y177F (human) (UniProt P11274). Description: co-IP.
In test [5] the target is BCR-ABL with deleted DH-PH domains (human) (UniProt P11274). Description: co-IP.
Test [6] addresses BCR-ABL with deleted IDR (human) (UniProt P11274). Description: co-IP.
Test [7] has as its target BCR-ABL with deleted PH domain (human) (UniProt P11274). The test can be described thus: co-IP.
The next test deals with p190 BCR-ABL (human) (UniProt P11274). The test can be described thus: proximity ligation.

With “GRB2 of NIH3T3 cells (from UniProt Q60631 1-217) (natural protein)”, the percent of GRB2 associated (with BCR-ABL Y177F (human) [1]; in test [2]) was 30% in each case.
With “p85a-PI3K, transfected (from UniProt P27986 1-724) (natural protein)”, the decrease of binding against BCR-ABL in test [3] is 40%; with BCR-ABL Y177F (human) [4], 50%; in test [5], 80%; in test [6], 70%.

B1: SHC1, endogenous (natural protein)
chain: MDLLPPKPKYNPLRNESLSSLEEGASGSTPPEELPSPSASSLGPILPPLPGDDSPTTLCSFFPRMSNLRLANPAGGRPGSKGEPGRAADDGEGIVGAAMPDSGPLPLLQDMNKLSGGGGRRTRVEGGQLGGEEWTRHGSFVNKPTRGWLHPNDKVMGPGVSYLVRYMGCVEVLQSMRALDFNTRTQVTREAISLVCEAVPGAKGATRRRKPCSRPLSSILGRSNLKFAGMPITLTVSTSSLNLMAADCKQIIANHHMQSISFASGGDPDTAEYVAYVAKDPVNQRACHILECPEGLAQDVISTIGQAFELRFKQYLRNPPKLVTPHDRMAGFDGSAWDEEEEEPPDHQYYNDFPGKEPPLGGVVDMRLREGAAPGAARPTAPNAQTPSHLGATLPVGQPVGGDPEVRKQMPPPPPCPGRELFDDPSYVNVQNLDKARQAVGGAGPPNPAINGSAPRDLFDMKPFEDALRVPPPPQSVSMAEQLRGEPWFHGKLSRREAEALLQLNGDFLVRESTTTPGQYVLTGLQSGQPKHLLLVDPEGVVRTKDHRFESVSHLISYHMDNHLPIISAGSELCLQQPVERKL
In test [7], B1 registered a decrease of the interaction against BCR-ABL of 70%.

B2: V5-tagged SHIP2 (enzyme)
chain: MASACGAPGPGGALGSQAPSWYHRDLSRAAAEELLARAGRDGSFLVRDSESVAGAFALCVLYQKHVHTYRILPDGEDFLAVQTSQGVPVRRFQTLGELIGLYAQPNQGLVCALLLPVEGEREPDPPDDRDASDGEDEKPPLPPRSGSTSISAPTGPSSPLPAPETPTAPAAESAPNGLSTVSHDYLKGSYGLDLEAVRGGASHLPHLTRTLATSCRRLHSEVDKVLSGLEILSKVFDQQSSPMVTRLLQQQNLPQTGEQELESLVLKLSVLKDFLSGIQKKALKALQDMSSTAPPAPQPSTRKAKTIPVQAFEVKLDVTLGDLTKIGKSQKFTLSVDVEGGRLVLLRRQRDSQEDWTTFTHDRIRQLIKSQRVQNKLGVVFEKEKDRTQRKDFIFVSARKREAFCQLLQLMKNKHSKQDEPDMISVFIGTWNMGSVPPPKNVTSWFTSKGLGKTLDEVTVTIPHDIYVFGTQENSVGDREWLDLLRGGLKELTDLDYRPIAMQSLWNIKVAVLVKPEHENRISHVSTSSVKTGIANTLGNKGAVGVSFMFNGTSFGFVNCHLTSGNEKTARRNQNYLDILRLLSLGDRQLNAFDISLRFTHLFWFGDLNYRLDMDIQEILNYISRKEFEPLLRVDQLNLEREKHKVFLRFSEEEISFPPTYRYERGSRDTYAWHKQKPTGVRTNVPSWCDRILWKSYPETHIICNSYGCTDDIVTSDHSPVFGTFEVGVTSQFISKKGLSKTSDQAYIEFESIEAIVKTASRTKFFIEFYSTCLEEYKKSFENDAQSSDNINFLKVQWSSRQLPTLKPILADIEYLQDQHLLLTVKSMDGYESYGECVVALKSMIGSTAQQFLTFLSHRGEETGNIRGSMKVRVPTERLGTRERLYEWISIDKDEAGAKSKAPSVSRGSQEPRSGSRKPAFTEASCPLSRLFEEPEKPPPTGRPPAPPRAAPREEPLTPRLKPEGAPEPEGVAAPPPKNSFNNPAYYVLEGVPHQLLPPEPPSPARAPVPSATKNKVAITVPAPQLGHHRHPRVGEGSSSDEESGGTLPPPDFPPPPLPDSAIFLPPSLDPLPGPVVRGRGGAEARGPPPPKAHPRPPLPPGPSPASTFLGEVASGDDRSCSVLQMAKTLSEVDYAPAGPARSALLPGPLELQPPRGLPSDYGRPLSFPPPRIRESIQEDLAEEAPCLQGGRASGLGEAGMSAWLRAIGLERYEEGLVHNGWDDLEFLSDITEEDLEEAGVQDPAHKRLLLDTLQLSK
In the test with p190 BCR-ABL (human), B2 showed an interaction preserved with nilotinib, against active BCR-ABL of more than 50%.

Source of the values: paper doi:10.1101/684480.
